Assay results taken from paper PMC5965843, “Structural study reveals the temperature-dependent conformational flexibility of Tk-PTP, a protein tyrosine phosphatase from Thermococcus kodakaraensis KOD1” (PLoS ONE, 2018).

What was measured:
Tk-PTP = target: T1, Tk-PTP (Thermococcus kodakarensis, UniProt Q8X270); test: X-ray crystal structure, […] Å; assay type: binding; conditions: active site (P-loop); protein heated at 60°C for 3 h with sodium vanadate at 1:3 molar ratio
T1 construct: recombinant, E. coli BL21(DE3) RIL; codon-optimized gene; wild type in pET28a, N-terminal His6-tag removed by thrombin; mutants in pET21a, Ni-NTA purified; P-loop HC93MGGLGR99

[1] = system: Cc1cc(=O)oc2c(F)c(OP(=O)(O)O)c(F)cc12; test: purified protein; conditions: 60°C (active form II), pH 5.0 sodium citrate, 200 mM NaCl, 5 mM dithiothreitol

| Molecule | X-ray crystal structure, 1.8 Å (Tk-PTP) | Km [1] [µM] | kcat [1] [s⁻¹] |
| --- | --- | --- | --- |
| [O]=[V]([OH])([OH])[OH] [vanadate] | Vanadate is anchored in the active site of Tk-PTP(form II) |  |  |
| Tk-PTP (Thermococcus kodakarensis KOD1) |  | 276 | 30.0 |
| Tk-PTP (Thermococcus kodakarensis KOD1; D63A) |  | 27.4 ± 10.6 | 1.29 ± 0.047 |
| Tk-PTP (Thermococcus kodakarensis KOD1; D63N) |  | 252 ± 50 | 2.92 ± 0.15 |
| Tk-PTP (Thermococcus kodakarensis KOD1; E132A) |  | 23 ± 8.4 | 3.83 ± 0.14 |
| Tk-PTP (Thermococcus kodakarensis KOD1; E132L) |  | 251 ± 423 | 2.97 ± 0.15 |
| Tk-PTP (Thermococcus kodakarensis KOD1; E132Q) |  | 150 ± 62 | 8.82 ± 0.13 |
| Tk-PTP (Thermococcus kodakarensis KOD1; G95A) |  | 106 ± 10 | 35.8 ± 0.7 |
| Tk-PTP (Thermococcus kodakarensis KOD1; Q136A) |  | 135 ± 16 | 0.460 ± 0.015 |
| Tk-PTP (Thermococcus kodakarensis KOD1; R124A) |  | 301 ± 109 | 1.59 ± 0.65 |
| Tk-PTP (Thermococcus kodakarensis KOD1; R124E) |  | 258 ± 43 | 0.188 ± 0.052 |
